The text below walks through data of paper PMC10632424, “Low-noise fluorescent detection of cardiac troponin I in human serum based on surface acoustic wave separation”.

One data set concerns the target T1, myoglobin (MYO) (UniProt P02144 2-154).
T1 sequence: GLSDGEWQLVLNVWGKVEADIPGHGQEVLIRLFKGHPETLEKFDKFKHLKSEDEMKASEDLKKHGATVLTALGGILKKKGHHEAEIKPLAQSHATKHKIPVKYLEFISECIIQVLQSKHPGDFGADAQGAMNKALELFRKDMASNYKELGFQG
The experiment in a line: fluorescence recovery by displacement of AuNP-ssDNA (bead-immobilized probe); 20 ng/mL; negligible response; PBS pH 7.2, 30 min shaking, temperature not stated; probe folded in 1 mM MgCl2, 1x PBS pH 7.2; serum diluted 10x in PBS. Conditions: protein: commercial; label: Texas Red; gold nanoparticle quencher; biotin on streptavidin PS beads; S2 pairs with S1[6-23]; S1 overhangs 5' 5 nt and 3' 17 nt.

In another data set the target is T2, C-reactive protein (CRP) (UniProt P02741 19-224).
T2 sequence: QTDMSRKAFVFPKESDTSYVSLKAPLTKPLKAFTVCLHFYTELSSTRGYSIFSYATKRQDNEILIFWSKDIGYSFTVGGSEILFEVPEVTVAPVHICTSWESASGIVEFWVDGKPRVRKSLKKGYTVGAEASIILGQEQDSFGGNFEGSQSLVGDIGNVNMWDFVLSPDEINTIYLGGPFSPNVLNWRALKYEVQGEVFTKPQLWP
Described as above. The following applies: protein: commercial; chain copies: 5; label: Texas Red; gold nanoparticle quencher; biotin on streptavidin PS beads; S2 pairs with S1[6-23]; S1 overhangs 5' 5 nt and 3' 17 nt.

For data set [1], the target named is cardiac troponin I (cTnI) (human, UniProt P19429 2-210). The data set is described as follows: fluorescence recovery by displacement of AuNP-ssDNA (bead-immobilized probe); PBS, cTnI 0.2-60 ng/mL; LOD 44 pg/mL; PBS pH 7.2, 30 min shaking, temperature not stated; probe folded in 1 mM MgCl2, 1x PBS pH 7.2; serum diluted 10x in PBS. Conditions: protein: commercial; label: Texas Red; gold nanoparticle quencher; biotin on streptavidin PS beads; S2 pairs with S1[6-23]; S1 overhangs 5' 5 nt and 3' 17 nt.
Chain of cardiac troponin I (cTnI) (P19429 2-210): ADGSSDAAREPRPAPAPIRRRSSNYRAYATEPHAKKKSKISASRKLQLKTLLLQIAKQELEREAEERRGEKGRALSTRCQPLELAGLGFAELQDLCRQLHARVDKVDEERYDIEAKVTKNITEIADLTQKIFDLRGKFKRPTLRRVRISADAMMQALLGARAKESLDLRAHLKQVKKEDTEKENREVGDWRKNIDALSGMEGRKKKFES

B1: cTnI aptamer probe hybridized with AuNP-ssDNA (mixed)
DNA 1: CGTGCAGTACGCCAACCTTTCTCATGCGCTGCCCCTCTTA
DNA 2: GAGAAAGGTTGGCGTACT
modifications: 5'-biotin and 3'-Texas Red on S1; 5' SH-C6 on S2 (gold nanoparticle)
Regarding B1, the binding result is listed as “no binding” with myoglobin (MYO), “no binding” in the data set with C-reactive protein (CRP) and “binds” in data set [1].
